Experiment in all cases: optical tweezers, force between two trapped cells
In test [1] the target is AGA2-CL7 displayed on S. cerevisiae cells (ScΦ) (UniProt Q47112).
The target in test [2] is AGA2-SpyTag displayed on S. cerevisiae cells (ScA).
In test [3] the target is AGA2-SpyCatcher displayed on S. cerevisiae cells (ScB).
The target of test [4] is AGA2-Im7 displayed on S. cerevisiae cells (ScΨ) (UniProt Q03708).
Sequence of UniProt Q03708 (Q03708 whole entry): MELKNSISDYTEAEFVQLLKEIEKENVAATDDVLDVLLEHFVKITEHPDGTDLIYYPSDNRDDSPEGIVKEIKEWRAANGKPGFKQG

“AGA2-SpyCatcher displayed on S. cerevisiae cells (ScB) (designed binder)”: the interaction force between the two cells in test [1] is less than 10 pN.

For “AGA2-SpyTag displayed on S. cerevisiae cells (ScA) (peptide)”, the interaction force between the two cells in test [2] is less than 10 pN. Further, in test [3], the force needed to pull apart the new cells of the cluster is less than 248 pN and the pulling force up to which the two cells remained attached worked out at 335 pN.

On to “AGA2-CL7 displayed on S. cerevisiae cells (ScΦ) (from UniProt Q47112 371-576) (domain or fragment)”, for which, in test [4], the force needed to pull apart the new cells of the cluster is less than 351 pN and the pulling force up to which the two cells remained attached is 335 pN.

The values are drawn from article PMC9635822.
